In patent US7230085B2, “Anti-DOTA antibody” (Immunomedics, Inc., priority 2001, dated 2007):
Values joined by “and” are separate entries in the source; they are usually repeats but may differ in a detail not shown here. Equal values may be shown once. “Also recorded” adds a separate entry of the source.

Tests used:
[1] = system: metal complexes of DOTA-hLL2; assay: ELISA binding of LG1 to DOTA-hLL2 metal complexes
Description: Immunocompetent mice were immunized mice with the macrocyclic chelate DOTA, previously coupled to a humanized immunoglobulin (hIgG). A number of mice were injected and the harvested splenocytes fused with the mouse myeloma cell line SP2/0, according to a standard technique. A total of 1800 clones were screened by ELISA for reactivity with DOTA-conjugated hIgG and hIgG alone. Initially, 25 clones were identified as secreting an IgG that bound to the IgG-DOTA conjugate, but not to the IgG. After being sub-cloned three times, only one hybrid, termed LG1, remained positive and this was adapted to grow in serum-free media. […] LG1 was purified from culture supernatant with a yield of ^˜50 mg/liter of media. […] These metals include gadolinium, gallium, indium, lead, lutetium and yttrium. Additionally, LG1 has a high affinity for a variety of DOTA compounds, showing strong reactivity starting at concentrations of ^˜1 ng/mL (^˜10^−9M), compared to previously produced anti-DOTA antibodies that had affinities measured in microgram amounts.
(§1) LG1 is tested by ELISA for binding to hLL2 and a panel of different metal complexes of DOTA-hLL2. The capture proteins are diluted to 10 μg/ml, and dilutions of LG1 are assayed. Binding is shown using a peroxidase-conjugated goat anti-mouse IgG Fc specific antibody.

hLL2 [2] = assay: ELISA binding of LG1 to hLL2
Description: as §1

BSA-DOTA-Yttrium = assay: Inhibition of LG1 binding to BSA-DOTA-Yttrium by hLL2-DOTA metal complexes (ELISA); conditions: LG1 0.1 μg/ml; inhibitors 10 to 0.0001 μg/ml
Description: The binding of LG1 to BSA-DOTA-Yttrium is also tested in the presence of a panel of hLL2-DOTA metal complexes by incubating LG1 at concentration 0.1 μg/ml with hLL2 and the DOTA-hLL2 conjugates, at concentration 10 to 0.0001 μg/ml, and then adding to ELISA plates coated with BSA-DOTA-Yttrium.

hLL2-DOTA-yttrium = assay: Qualitative binding on size-exclusion HPLC; conditions: SE-HPLC
Description: (§2) The msAb, LG1×hMN-14 (Fab′×Fab) is shown by the same analysis to bind to hLL2-DOTA-yttrium.

hLL2-DOTA = assay: Qualitative binding on size-exclusion HPLC; conditions: SE-HPLC
Description: as §2

hLL2 [3] = assay: Qualitative binding on size-exclusion HPLC; conditions: SE-HPLC
Description: as §2

hMN-14-DOTA-yttrium-90 = assay: Qualitative binding on size-exclusion HPLC; conditions: SE-HPLC
[4] = system: biotin-D-Phe-D-Lys(DOTA-indium-111); assay: Qualitative binding on size-exclusion HPLC; conditions: epsilon-linked indium-DOTA
Description: (§3) To determine the essential features that are important to elicit LG1 binding, labeled DOTA (indium-111) was linked to a hapten, via lysine residues, on either the alpha (DOTA-Lys(HSG)-D-Tyr-Lys(HSG)-NH2) or epsilon (biotin-D-Phe-D-Lys[DOTA]) positions of one of the DOTA carboxy groups. LG1 did bind the epsilon-linked indium-DOTA, but not the alpha-linked indium DOTA. […] Thus, the antibody of the current invention is “universal” in that it may bind to any DOTA-metal complex with a pendant N-alkylacetamide group, regardless of the type of metal with which DOTA is complexed. As used herein, the phrases “universal anti-DOTA antibody” or “universally binds” are used to mean an antibody that binds to any DOTA or DOTA-metal complex with a pendant N-alkylacetamide group.
as §2

[5] = system: indium-111-DOTA-Phe-Lys(HSG)-D-Tyr-Lys(HSG)-NH2; assay: Qualitative binding on size-exclusion HPLC
Description: as §3, §2

indium-DOTA alone = assay: LG1 binding to indium-DOTA alone
Description: as §3

[6] = Isoelectric focusing of purified LG1; assay type: physicochemical
Description: LG1 cells are expanded and adapted to grow in H-SFM media in serum-free conditions. The antibody LG1 is isolated from the culture media by affinity chromatography on Protein G Sepharose with a yield of ^˜50 mg of IgG per liter of culture media. The purified antibody is analyzed by SDS polyacrylamide electrophoresis, isoelectric focusing, and its isotype is determined by ELISA with a commercially available kit (Southern Biotechnology, Birmingham, Ala.).

B1: LG1: murine monoclonal anti-DOTA antibody, IgG2b with a lambda light chain (antibody, V domains shown)
VH: EVMLVESGGGLVKPGGSLTLSCAASGFTFTAHAMSWVRQTPEKRLEWVATISGGGTYTYFPDSFQGRFTISSDNAKNTLYLQMSSLRSEDTSMYFCTRHGDYRYAFGYWGQGTLVTVSA
VL: VVTQESALTTSPGETVTLTCRSSSGAVTTNNYANWVQEKPDHLFTGLIGGTNNRAPGVPARFSGSLIGDKAALTITGAQTEDEAIYFCALWFSDHWVFGGGTELTVLG
binding to DOTA-hLL2 and its metal complexes ([1]; ELISA, gadolinium, gallium, indium, lead, lutetium, yttrium and no metal): Equivalent binding; also recorded: Identical binding; also recorded: bind equally; also recorded: bind equivalently well; also recorded: binds to gadolinium-DOTA complexes as well as it binds to the yttrium-DOTA complexes | concentration at which strong reactivity starts ([1]; ELISA, variety of DOTA compounds): ~1 ng/mL and ~10^−9 M | Kd ([1]; estimated by ELISA method to determine ligand binding affinity, read-out: affinity towards many different metal-DOTA complexes): 1 to 100 pM | binding to hLL2 (hLL2 [2]): no binding | specificity in inhibition assay (BSA-DOTA-Yttrium): anti-DOTA specific, independent of the metal being bound in the chelate ring | binding to hLL2-DOTA-yttrium (hLL2-DOTA-yttrium): positive binding | binding to hLL2-DOTA (hLL2-DOTA): positive binding | binding to hLL2 itself (hLL2 [3]): no binding | binding to hMN-14-DOTA-yttrium-90 (hMN-14-DOTA-yttrium-90): positive binding | binding to biotin-D-Phe-D-Lys(DOTA-indium-111) [4]: positive binding; also recorded: did bind | binding to alpha-amino-linked indium-111-DOTA peptide [5]: no binding and not | binding to indium-DOTA alone (indium-DOTA alone): did not bind | PI [6]: 5.85-6.85
